Test results taken from the RNAGym collection of RNA variant scans (doi:10.1073/pnas.2313332121).
This sample holds only a part of the variants without activity.

B1: TPR 5TU (parent)
chain: GGAUCUUCUCGAUCUAACAAAAAAGACAAAUCUGCCACAAAGCUUGAGAGCAUCUUCGGAUGCAGAGGCGGCAGCCUUCGGUGGCGCGAUAGCGCCAACGUUCUCAACUAUGACACGCAAAACGCGUGCUCCGUUGAAUGGAGUUUAUCAUG

Variants of: B1
Assay: polymerase ribozyme fitness, log enrichment relative to wild type (log ratio); higher = more active; in vitro selection for triplet polymerase activity
Procedure, shortened: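 Both subunits of a heterodimeric triplet polymerase ribozyme were given their own mutant library, built by PCR and transcribed. Each library was annealed with a biotinylated primer, the partner subunit and triplets, incubated frozen at −7 °C, and its extended constructs gel-excised, captured on streptavidin beads and amplified by RT-PCR, all in one round done in triplicate. Fitness is the logarithm of genotype enrichment relative to wild-type enrichment, with replicates averaged by inverse-variance weighting. That logarithm is base 2, and Illumina-sequenced genotypes needed ≥10 input reads and ≥1 read per output.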
With A16G C99U the “polymerase ribozyme fitness (log ratio)” value was -1.33. With A16G C108U G126A the “polymerase ribozyme fitness (log ratio)” value was at most -4.2. For A16U A17C A24G A49G C76A C87A C99G, the “polymerase ribozyme fitness (log ratio)” value was at most -4.2. In the case of U15A C76U C99G C105G, the “polymerase ribozyme fitness (log ratio)” value is reported as at most -4.2. For A16G C85G G86U A89C A107G, the “polymerase ribozyme fitness (log ratio)” value was at most -4.2. With A16G A37C U55G U56A G59A G83A C87U the “polymerase ribozyme fitness (log ratio)” value was -3.9. For C14U G81U G84U, the “polymerase ribozyme fitness (log ratio)” value was -2.93. For A17C C54U A73U G94U A106G, the “polymerase ribozyme fitness (log ratio)” value was -2.62. For U15C C36A U55A A106U C108U A115G G117U G140A, the “polymerase ribozyme fitness (log ratio)” value was at most -4.2. With A16U A30U C87A the “polymerase ribozyme fitness (log ratio)” value was at most -4.2. For A16G A49G A73C A91G U144C, the “polymerase ribozyme fitness (log ratio)” value was at most -4.2. For A16U C36A G92U A150U, the “polymerase ribozyme fitness (log ratio)” value was at most -4.2. For A16G C35A C87G U109C G126C C149G, the “polymerase ribozyme fitness (log ratio)” value was at most -4.2. In the case of C14U G84U, the “polymerase ribozyme fitness (log ratio)” value is reported as -3.29. With A16G A30U G81C C95U A110G the “polymerase ribozyme fitness (log ratio)” value was at most -4.2. In the case of A16G, the “polymerase ribozyme fitness (log ratio)” value is reported as -0.642. With A16U the “polymerase ribozyme fitness (log ratio)” value was -1.62. With A16C the “polymerase ribozyme fitness (log ratio)” value was -1.01. For A16U C32A C35G C96A G124C U144C, the “polymerase ribozyme fitness (log ratio)” value was at most -4.2. For A16C U135A, the “polymerase ribozyme fitness (log ratio)” value was -2.12. With U15A G46U A47C C72U G88U G94A C95G A97G C108G A115G the “polymerase ribozyme fitness (log ratio)” value was at most -4.2. In the case of A16U A24C C27U C85U G126U, the “polymerase ribozyme fitness (log ratio)” value is reported as at most -4.2. In the case of A16G A24U A73U, the “polymerase ribozyme fitness (log ratio)” value is reported as -2.25. For A16U A20C U31G G42C C87G G88C, the “polymerase ribozyme fitness (log ratio)” value was at most -4.2. With U15G A37U U56A C57A C123U the “polymerase ribozyme fitness (log ratio)” value was -1.55. For A16G U56C C76A, the “polymerase ribozyme fitness (log ratio)” value was -0.363. For U15G C103G U151G, the “polymerase ribozyme fitness (log ratio)” value was at most -4.2. In the case of A16G G46U G84A C105U G133C A138G A142G, the “polymerase ribozyme fitness (log ratio)” value is reported as at most -4.2. With C14U C85A the “polymerase ribozyme fitness (log ratio)” value was -2.54. In the case of A16C C27G A49G G50A A60C C79A A91U C105G, the “polymerase ribozyme fitness (log ratio)” value is reported as at most -4.2. For A16U C93U C116U G117U A121G, the “polymerase ribozyme fitness (log ratio)” value was -2.05. For A16G C38A A147C, the “polymerase ribozyme fitness (log ratio)” value was -2.97. With A16C G58C G83U A119C the “polymerase ribozyme fitness (log ratio)” value was -1.98. With U15G U148A the “polymerase ribozyme fitness (log ratio)” value was -2.78. With A16C A52U the “polymerase ribozyme fitness (log ratio)” value was -2.03. With C14U C18A U61C U139G the “polymerase ribozyme fitness (log ratio)” value was -4.16. In the case of C14U C35U G59C A60G C85U U104A A120U G128U A147G, the “polymerase ribozyme fitness (log ratio)” value is reported as at most -4.2. For A16C A21U G59A G94A A98G, the “polymerase ribozyme fitness (log ratio)” value was -2.66. In the case of U15G G70A C87U U90C C93U, the “polymerase ribozyme fitness (log ratio)” value is reported as at most -4.2. In the case of A16C A26G G86U, the “polymerase ribozyme fitness (log ratio)” value is reported as at most -4.2. For A16C A21C U61A, the “polymerase ribozyme fitness (log ratio)” value was -1.52. With A17C A120G the “polymerase ribozyme fitness (log ratio)” value was 0.31. With C14U C123G the “polymerase ribozyme fitness (log ratio)” value was -1.9. For U15G A47G C54U C93G C96U U104C A150G, the “polymerase ribozyme fitness (log ratio)” value was -3.79. For U15C G86A, the “polymerase ribozyme fitness (log ratio)” value was 0.14. With A16U A20C C27U A37U G59C A64C C85U A113G A120U C132U the “polymerase ribozyme fitness (log ratio)” value was at most -4.2. For U15A U55A C99G, the “polymerase ribozyme fitness (log ratio)” value was -1.2. For A16U C18A A22U G48U U56G A66G G84U U144A, the “polymerase ribozyme fitness (log ratio)” value was at most -4.2. With U15A A26G U77G C95A the “polymerase ribozyme fitness (log ratio)” value was at most -4.2. For U15C C51A A60U C93A C96G G140A, the “polymerase ribozyme fitness (log ratio)” value was at most -4.2. With A16G U33G A39C G58U U151G the “polymerase ribozyme fitness (log ratio)” value was at most -4.2. For U15G A28U A49C A66C C79A A97U G124A, the “polymerase ribozyme fitness (log ratio)” value was at most -4.2. With U15G A41C C93U the “polymerase ribozyme fitness (log ratio)” value was -1.93. With A16U A52C the “polymerase ribozyme fitness (log ratio)” value was -2.96. For A16G G46A A73G G88U G94A C114G, the “polymerase ribozyme fitness (log ratio)” value was at most -4.2. For U15A A20C G74C G81A C105G U135G U145G U148A, the “polymerase ribozyme fitness (log ratio)” value was at most -4.2. With A16C A60U A66C C76U U78C C93A the “polymerase ribozyme fitness (log ratio)” value was at most -4.2. In the case of U15C U44C U61A G70U G80A C96U, the “polymerase ribozyme fitness (log ratio)” value is reported as at most -4.2. In the case of C14U U45G A47G G48C C69U C76G U109A, the “polymerase ribozyme fitness (log ratio)” value is reported as at most -4.2. In the case of U15C A40U G59C C85U, the “polymerase ribozyme fitness (log ratio)” value is reported as 1.15. For A16G A47G G50C G59A G83U C114A, the “polymerase ribozyme fitness (log ratio)” value was at most -4.2. For U15A G25U A60G G74A C75A A142U, the “polymerase ribozyme fitness (log ratio)” value was at most -4.2. For U15G C18A C54A G94A G117C C125A, the “polymerase ribozyme fitness (log ratio)” value was -1.44. In the case of A16U U56A A60U G141U, the “polymerase ribozyme fitness (log ratio)” value is reported as -2.12. With A16G G48A C57G G58A A60C G88A C114A G141A the “polymerase ribozyme fitness (log ratio)” value was at most -4.2. For A16C A19U C57G A73U A91U G140A U145A, the “polymerase ribozyme fitness (log ratio)” value was at most -4.2. In the case of A16G A40U G59C U104A, the “polymerase ribozyme fitness (log ratio)” value is reported as -1.85. For A16C C87U C118U, the “polymerase ribozyme fitness (log ratio)” value was -2.27. For U15C G50C U101G C105U, the “polymerase ribozyme fitness (log ratio)” value was -1.68. For A16G A52C C87A U102A C118G C132U, the “polymerase ribozyme fitness (log ratio)” value was at most -4.2. In the case of U15A U56A G70A, the “polymerase ribozyme fitness (log ratio)” value is reported as -4.2. In the case of A16U G50A G92U A98G C132G A142U, the “polymerase ribozyme fitness (log ratio)” value is reported as at most -4.2. In the case of A16U C93A, the “polymerase ribozyme fitness (log ratio)” value is reported as -3.85. With U15G A16U C85U C118U the “polymerase ribozyme fitness (log ratio)” value was -1.42. In the case of U15A C51U G58U C69G, the “polymerase ribozyme fitness (log ratio)” value is reported as -1.91. For U15G G25C A41C U55G C96A U139C G152U, the “polymerase ribozyme fitness (log ratio)” value was at most -4.2. With A17C C51A C93U A115U the “polymerase ribozyme fitness (log ratio)” value was -2.93. With U15G G59A G88A C132U the “polymerase ribozyme fitness (log ratio)” value was at most -4.2. For U15C A91C G94U C96G, the “polymerase ribozyme fitness (log ratio)” value was at most -4.2. In the case of C14U C36A A73G G83A G86A, the “polymerase ribozyme fitness (log ratio)” value is reported as at most -4.2. With A16C G50A C96A the “polymerase ribozyme fitness (log ratio)” value was -3.37. With A16C C32A A49U U102G C129G the “polymerase ribozyme fitness (log ratio)” value was at most -4.2. For C14U U15C A16U A19G A30U A39C G48U G50A G70U A113U G141U, the “polymerase ribozyme fitness (log ratio)” value was at most -4.2.
